How the values were obtained:
Type in all cases: binding
293T/CD131 cells = target: T1, 293T/CD131 cells (Homo sapiens, UniProt P32927); experiment: Staining of 293T/CD131 cells with purified antibodies
T1 construct: expressed in transfected cells; host or cells: 293T cells, lentiviral transduction
T1 sequence (P32927 17-897): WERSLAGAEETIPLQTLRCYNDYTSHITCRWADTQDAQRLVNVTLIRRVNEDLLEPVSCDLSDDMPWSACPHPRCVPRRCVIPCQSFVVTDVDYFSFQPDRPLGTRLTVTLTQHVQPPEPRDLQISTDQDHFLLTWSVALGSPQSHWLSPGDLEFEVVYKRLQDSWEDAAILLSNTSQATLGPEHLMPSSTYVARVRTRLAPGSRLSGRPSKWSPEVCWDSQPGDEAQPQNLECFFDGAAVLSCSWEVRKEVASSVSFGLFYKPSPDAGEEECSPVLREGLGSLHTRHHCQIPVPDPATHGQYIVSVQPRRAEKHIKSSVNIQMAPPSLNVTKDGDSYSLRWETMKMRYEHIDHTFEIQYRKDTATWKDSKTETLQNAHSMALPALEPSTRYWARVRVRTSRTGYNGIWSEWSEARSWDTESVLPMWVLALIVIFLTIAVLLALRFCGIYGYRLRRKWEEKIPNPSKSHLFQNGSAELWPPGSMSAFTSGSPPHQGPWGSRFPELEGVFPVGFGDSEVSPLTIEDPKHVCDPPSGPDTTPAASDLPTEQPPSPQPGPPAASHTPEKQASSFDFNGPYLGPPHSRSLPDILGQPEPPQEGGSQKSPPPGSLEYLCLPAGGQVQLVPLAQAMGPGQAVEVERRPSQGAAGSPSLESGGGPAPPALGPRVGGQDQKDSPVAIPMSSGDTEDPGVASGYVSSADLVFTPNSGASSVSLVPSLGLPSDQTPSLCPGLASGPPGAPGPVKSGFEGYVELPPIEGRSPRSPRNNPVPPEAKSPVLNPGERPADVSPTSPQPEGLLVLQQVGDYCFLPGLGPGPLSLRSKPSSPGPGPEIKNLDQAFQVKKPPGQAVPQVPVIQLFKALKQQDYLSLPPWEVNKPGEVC
Experimental: (§1) The purified antibodies were used to stain the human leukemia UT-7 cells, 293T/EPOR, 293T/CD131, and 293T/EPOR/CD131 cells to confirm antigen binding. The UT-7 cells were maintained in Roswell Park Memorial Institute (RPMI) with 10% Fetal Bovine Serum (FBS) and 5 ng/ml of recombinant human GM-CSF (Peprotech®, Cat #300-03). The 293T cells expressing hEPOR, hCD131, or both were maintained in Dulbecco's Modified Eagle Medium (DMEM) with 10% FBS. 1×10^6 cells/ml were incubated with purified hybridoma clones M2 and M41 at a 3-fold dilution series starting from 20 μg/ml for 30 minutes at 4° C. After washing, the cells were incubated with PE labeled secondary antibody and subjected to flowcytometric analysis. […] The binding profiles of the 293T/EPOR/CD131 cells are similar except the peak MFIs around 1500, half of that of the 293T/EPOR cells (FIG. 29B).

UT-7 cells = target: T2, UT-7 cells (Homo sapiens, UniProt P19235); experiment: Staining of UT-7 cells with purified antibodies
T2 construct: endogenous in cells; host or cells: UT-7 human leukemia cells
T2 sequence (P19235 25-508): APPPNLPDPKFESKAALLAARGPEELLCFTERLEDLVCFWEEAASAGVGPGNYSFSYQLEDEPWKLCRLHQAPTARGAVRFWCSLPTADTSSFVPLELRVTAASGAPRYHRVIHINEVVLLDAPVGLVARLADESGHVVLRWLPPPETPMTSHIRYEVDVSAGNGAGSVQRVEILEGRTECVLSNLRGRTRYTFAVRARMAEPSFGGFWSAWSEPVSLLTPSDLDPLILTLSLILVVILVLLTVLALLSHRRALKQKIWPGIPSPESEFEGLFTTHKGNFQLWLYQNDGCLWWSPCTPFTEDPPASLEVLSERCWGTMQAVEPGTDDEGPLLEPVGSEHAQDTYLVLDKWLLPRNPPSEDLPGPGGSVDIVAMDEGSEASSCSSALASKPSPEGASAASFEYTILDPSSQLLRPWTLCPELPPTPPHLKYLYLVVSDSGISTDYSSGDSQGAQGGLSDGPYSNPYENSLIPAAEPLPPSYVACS
Experimental: as §1

293T/EPOR/CD131 cells = target: T3, 293T/EPOR/CD131 cells (Homo sapiens, UniProt P19235); experiment: Staining of 293T/EPOR/CD131 cells with purified antibodies
T3 construct: expressed in transfected cells; host or cells: 293T cells, lentiviral transduction
T3 sequence (P19235 25-508): T2 sequence (P19235 25-508)
Experimental: as §1

B1: EPORab - M2: hybridoma antibody clone, VH/VK in Table 10 (antibody, V domains shown)
VH: QVQLVESGGGLVKPGGSLRLSCAASGFTFSDSYMSWIRQAPGKGLEWVSYISNSGSYMYYADSVKGRFTISRDNAKNSLYLQMNNLRAEDTAVYYCARDKLGIGDYWGQGTLVTVSS
VL: DIQMTQSPSSLSASVGDRVTITCRASQGIRNDLGWFQQKPGKAPKRLIYAASRLQSGVPSRFSGSGSGTEFTLTISSLQPEDFATYCCLQHHTYPPTFGQGTKVEIK
staining of 293T/CD131 cells (293T/CD131 cells): did not stain
MFI (UT-7 cells): ~18,000
peak MFI (293T/EPOR/CD131 cells): around 1500
